Assay results as given in publication PMC11804575.

Target: heat shock protein 90 (HSP90) (UniProt P07900)
Test: co-immunoprecipitation (anti-HA) with immunoblot quantification (ImageJ)
Conditions: HEK293T cells; endogenous HSP90; n = 3; parent: est. 1.0; read off a plot

Substance: BRAF^V600E (from UniProt P15056) R509H; 621APE-AAE
- response (HSP90/HA-BRAF normalized to V600E): 12
